Source: patent US20240101685A1, “NEAR INFRARED PHOTOIMMUNOTHERAPY (NIR-PIT) COMBINATION THERAPY TO TREAT CANCER” (THE UNITED STATES OF AMERICA, as represented by the …, priority 2021, published 2024)

Tested on: PD-L1 expression on cancer cell lines MC38-luc and LL2-luc
Test: Flow-cytometric analysis of PD-L1 expression with or without interferon gamma
Assay type: cell-based
Details: cell culture, 20 ng/ml or 50 ng/ml IFNgamma
Method: FIG. 12: Flow cytometry analysis showing PD-L1 expression in cancer cell lines before and after stimulation with 20 ng/ml or 50 ng/ml IFNgamma (IFNγ).

B1: interferon gamma: immunoactivator cytokine (protein, UniProt P01579 24-161, looked up)
Interferon gamma: QDPYVKEAENLKKYFNAGHSDVADNGTLFLGILKNWKEESDRKIMQSQIVSFYFKLFKNFKDDQSIQKSVETIKEDMNVKFFNSNKKKRDDFEKLTNYSVTDLNVQRKAIHELIQVMAELSPAAKTGKRKRSQMLFRG
PD-L1 expression: conditionally enhanced the expression of PD-L1 | PD-L1 expression (listed as IFN-gamma): PD-L1 expression increases
